Results: US20190270826A1 (Janssen / Centocor, published 2019)

Experiments:
[1] = molecular target: T1, recombinant human IL1RAP ECD (human, UniProt Q9NPH3 21-367); experiment: SPR; human KD over cyno KD
T1 construct: His-tagged; also called hIL1RAP-ECD; rhuIL1RAP
T1 sequence: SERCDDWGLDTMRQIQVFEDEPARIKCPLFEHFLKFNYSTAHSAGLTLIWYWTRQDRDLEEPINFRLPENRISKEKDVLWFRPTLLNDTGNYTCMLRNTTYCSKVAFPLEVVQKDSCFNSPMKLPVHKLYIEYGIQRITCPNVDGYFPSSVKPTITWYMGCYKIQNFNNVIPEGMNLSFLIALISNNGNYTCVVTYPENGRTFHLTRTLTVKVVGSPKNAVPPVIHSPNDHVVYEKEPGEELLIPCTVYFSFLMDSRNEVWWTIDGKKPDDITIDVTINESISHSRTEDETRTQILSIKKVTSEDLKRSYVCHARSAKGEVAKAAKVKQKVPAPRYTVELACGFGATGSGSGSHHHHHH

[2] = molecular target: T2, human IL1RAP on cells (endogenous) (human, UniProt Q9NPH3 21-570); experiment: cell-based or functional assay
T2 sequence (looked up): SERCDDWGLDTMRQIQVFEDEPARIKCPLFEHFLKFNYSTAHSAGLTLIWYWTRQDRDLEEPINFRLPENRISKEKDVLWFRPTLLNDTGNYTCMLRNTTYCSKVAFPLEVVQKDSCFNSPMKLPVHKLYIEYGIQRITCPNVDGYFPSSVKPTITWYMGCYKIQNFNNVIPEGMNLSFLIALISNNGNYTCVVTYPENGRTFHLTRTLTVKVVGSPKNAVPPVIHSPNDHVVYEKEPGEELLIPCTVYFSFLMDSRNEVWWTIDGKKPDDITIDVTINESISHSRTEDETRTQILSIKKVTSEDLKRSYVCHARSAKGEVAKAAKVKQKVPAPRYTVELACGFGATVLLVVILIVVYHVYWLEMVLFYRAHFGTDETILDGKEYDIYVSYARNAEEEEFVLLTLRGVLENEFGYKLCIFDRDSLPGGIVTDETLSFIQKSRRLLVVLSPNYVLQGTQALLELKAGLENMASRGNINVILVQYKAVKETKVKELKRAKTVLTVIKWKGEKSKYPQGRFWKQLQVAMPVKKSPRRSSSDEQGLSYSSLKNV

[3] = molecular target: T3, recombinant cyno IL1RAP ECD (cynomolgus monkey, UniProt P59822 21-367 (rhesus entry)); experiment: SPR
T3 construct: also called rcynoIL1RAP
T3 sequence: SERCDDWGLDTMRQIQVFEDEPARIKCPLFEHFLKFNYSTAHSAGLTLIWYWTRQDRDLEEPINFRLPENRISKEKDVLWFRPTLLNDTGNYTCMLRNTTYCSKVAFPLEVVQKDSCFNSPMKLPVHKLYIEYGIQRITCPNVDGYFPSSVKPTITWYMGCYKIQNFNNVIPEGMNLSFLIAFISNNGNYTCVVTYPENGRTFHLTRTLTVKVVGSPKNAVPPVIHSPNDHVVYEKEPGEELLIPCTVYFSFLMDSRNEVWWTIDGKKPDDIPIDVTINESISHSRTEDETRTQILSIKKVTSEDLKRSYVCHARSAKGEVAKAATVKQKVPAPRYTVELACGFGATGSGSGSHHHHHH

[4] = molecular target: T3, recombinant cyno IL1RAP ECD; experiment: SPR; remark: listed apart in the source
[5] = molecular target: T1, recombinant human IL1RAP ECD; experiment: SPR
[6] = molecular target: T1, recombinant human IL1RAP ECD; experiment: SPR; remark: listed apart in the source
[7] = molecular target: T3, recombinant cyno IL1RAP ECD; experiment: SPR, summary
[8] = molecular target: T1, recombinant human IL1RAP ECD; experiment: SPR, summary

B1: IC3B8 (bispecific antibody, human IgG4 S228P, kappa, lambda, F234A L235A)
heavy 1: EVQLVESGGGLVQPGGSLKLSCAASGFTFNTYAMNWVRQASGKGLEWVGRIRSKYNAYATYYAASVKGRFTISRDDSKNTAYLQMNSLKTEDTAVYYCTRHGNFGNSYVSWFAYWGQGTLVTVSSASTKGPSVFPLAPCSRSTSESTAALGCLVKDYFPEPVTVSWNSGALTSGVHTFPAVLQSSGLYSLSSVVTVPSSSLGTKTYTCNVDHKPSNTKVDKRVESKYGPPCPPCPAPEAAGGPSVFLFPPKPKDTLMISRTPEVTCVVVDVSQEDPEVQFNWYVDGVEVHNAKTKPREEQFNSTYRVVSVLTVLHQDWLNGKEYKCKVSNKGLPSSIEKTISKAKGQPREPQVYTLPPSQEEMTKNQVSLTCLVKGFYPSDIAVEWESNGQPENNYKTTPPVLDSDGSFLLYSKLTVDKSRWQEGNVFSCSVMHEALHNHYTQKSLSLSLGK
light 1: QAVVTQEPSLTVSPGGTVTLTCRSSTGAVTTSNYANWVQQKPGQAPRGLIGGTNKRAPGTPARFSGSLLGGKAALTLSGAQPEDEAEYYCALWYSNLWVFGGGTKLTVLGQPKAAPSVTLFPPSSEELQANKATLVCLISDFYPGAVTVAWKADSSPVKAGVETTTPSKQSNNKYAASSYLSLTPEQWKSHRSYSCQVTHEGSTVEKTVAPTECS
heavy 2: not shown
light 2: not shown
notes: IgG4-PAA, Fab arm exchange; also called IAPB23 x CD3B220
B1 was tested, and the “Hu/Cyno KD Ratio” value [1] was 3.7, the “EC50, T-cell mediated cytotoxicity” value [2] was 0.138 nM and the Kd [3] was 2.7 nM. The koff [3] was 0.00121 s⁻¹, the kon [3] was 448000 M⁻¹ s⁻¹ and the Kd [4] was 2.7 nM. The Kd [5] was 9.96 nM, the Kd [6] was 9.96 nM and the koff [6] was 0.00298 s⁻¹. For the same binder, the kon [6] was 300000 M⁻¹ s⁻¹, the Kd [7] was 2.7 nM and the Kd [8] was 9.96 nM.

B2: IC3B13 (bispecific antibody, human IgG4 S228P, lambda, F234A L235A)
heavy 1: EVQLVESGGGLVQPGGSLKLSCAASGFTFNTYAMNWVRQASGKGLEWVGRIRSKYNAYATYYAASVKGRFTISRDDSKNTAYLQMNSLKTEDTAVYYCTRHGNFGNSYVSWFAYWGQGTLVTVSSASTKGPSVFPLAPCSRSTSESTAALGCLVKDYFPEPVTVSWNSGALTSGVHTFPAVLQSSGLYSLSSVVTVPSSSLGTKTYTCNVDHKPSNTKVDKRVESKYGPPCPPCPAPEAAGGPSVFLFPPKPKDTLMISRTPEVTCVVVDVSQEDPEVQFNWYVDGVEVHNAKTKPREEQFNSTYRVVSVLTVLHQDWLNGKEYKCKVSNKGLPSSIEKTISKAKGQPREPQVYTLPPSQEEMTKNQVSLTCLVKGFYPSDIAVEWESNGQPENNYKTTPPVLDSDGSFLLYSKLTVDKSRWQEGNVFSCSVMHEALHNHYTQKSLSLSLGK
light 1: QAVVTQEPSLTVSPGGTVTLTCRSSTGAVTTSNYANWVQQKPGQAPRGLIGGTNKRAPGTPARFSGSLLGGKAALTLSGAQPEDEAEYYCALWYSNLWVFGGGTKLTVLGQPKAAPSVTLFPPSSEELQANKATLVCLISDFYPGAVTVAWKADSSPVKAGVETTTPSKQSNNKYAASSYLSLTPEQWKSHRSYSCQVTHEGSTVEKTVAPTECS
heavy 2: not shown
light 2: QSALTQPRSVSGSPGHSVTISCTGTSSDVGDYNYVSWYQQRPGKVPKLLIYDVSKRPSGVPDRFSGSKSGNTASLTISGLQAEDEAIYFCASYAGNYNVVFGGGTKLTVLGQPKAAPSVTLFPPSSEELQANKATLVCLISDFYPGAVTVAWKADSSPVKAGVETTTPSKQSNNKYAASSYLSLTPEQWKSHRSYSCQVTHEGSTVEKTVAPTECS
notes: IgG4-PAA, Fab arm exchange; also called IAPB63 x CD3B220
B2 was tested, and the “Hu/Cyno KD Ratio” value [1] was 0.3, the “EC50, T-cell mediated cytotoxicity” value [2] was 0.054 nM and the Kd [3] was 0.451 nM. For the same binder, the koff [3] was 0.000532 s⁻¹, the kon [3] was 1.18e+06 M⁻¹ s⁻¹ and the Kd [4] was 0.451 nM. The Kd [5] was 0.122 nM, the Kd [6] was 0.122 nM and the koff [6] was 0.000114 s⁻¹. It also gave a kon [6] of 938000 M⁻¹ s⁻¹, a Kd [7] of 0.451 nM and a Kd [8] of 0.122 nM.

B3: IC3B12 (bispecific antibody, human IgG4 S228P, kappa, lambda, F234A L235A)
heavy 1: EVQLVESGGGLVQPGGSLKLSCAASGFTFNTYAMNWVRQASGKGLEWVGRIRSKYNAYATYYAASVKGRFTISRDDSKNTAYLQMNSLKTEDTAVYYCTRHGNFGNSYVSWFAYWGQGTLVTVSSASTKGPSVFPLAPCSRSTSESTAALGCLVKDYFPEPVTVSWNSGALTSGVHTFPAVLQSSGLYSLSSVVTVPSSSLGTKTYTCNVDHKPSNTKVDKRVESKYGPPCPPCPAPEAAGGPSVFLFPPKPKDTLMISRTPEVTCVVVDVSQEDPEVQFNWYVDGVEVHNAKTKPREEQFNSTYRVVSVLTVLHQDWLNGKEYKCKVSNKGLPSSIEKTISKAKGQPREPQVYTLPPSQEEMTKNQVSLTCLVKGFYPSDIAVEWESNGQPENNYKTTPPVLDSDGSFLLYSKLTVDKSRWQEGNVFSCSVMHEALHNHYTQKSLSLSLGK
light 1: QAVVTQEPSLTVSPGGTVTLTCRSSTGAVTTSNYANWVQQKPGQAPRGLIGGTNKRAPGTPARFSGSLLGGKAALTLSGAQPEDEAEYYCALWYSNLWVFGGGTKLTVLGQPKAAPSVTLFPPSSEELQANKATLVCLISDFYPGAVTVAWKADSSPVKAGVETTTPSKQSNNKYAASSYLSLTPEQWKSHRSYSCQVTHEGSTVEKTVAPTECS
heavy 2: not shown
light 2: not shown
notes: IgG4-PAA, Fab arm exchange; also called IAPB55 x CD3B220
B3 was tested, and the “Hu/Cyno KD Ratio” value [1] was 1.4, the “EC50, T-cell mediated cytotoxicity” value [2] was 1.3 nM and the Kd [3] was 0.218 nM. It also gave a koff [3] of 0.000331 s⁻¹, a kon [3] of 1.52e+06 M⁻¹ s⁻¹ and a Kd [4] of 0.218 nM. It also gave a Kd [5] of 0.313 nM, a Kd [6] of 0.313 nM and a koff [6] of 0.000361 s⁻¹. For the same binder, the kon [6] was 1.15e+06 M⁻¹ s⁻¹, the Kd [7] was 0.218 nM and the Kd [8] was 0.313 nM.

B4: IC3B14 (bispecific antibody, human IgG4 S228P, lambda, F234A L235A)
heavy 1: EVQLVESGGGLVQPGGSLKLSCAASGFTFNTYAMNWVRQASGKGLEWVGRIRSKYNAYATYYAASVKGRFTISRDDSKNTAYLQMNSLKTEDTAVYYCTRHGNFGNSYVSWFAYWGQGTLVTVSSASTKGPSVFPLAPCSRSTSESTAALGCLVKDYFPEPVTVSWNSGALTSGVHTFPAVLQSSGLYSLSSVVTVPSSSLGTKTYTCNVDHKPSNTKVDKRVESKYGPPCPPCPAPEAAGGPSVFLFPPKPKDTLMISRTPEVTCVVVDVSQEDPEVQFNWYVDGVEVHNAKTKPREEQFNSTYRVVSVLTVLHQDWLNGKEYKCKVSNKGLPSSIEKTISKAKGQPREPQVYTLPPSQEEMTKNQVSLTCLVKGFYPSDIAVEWESNGQPENNYKTTPPVLDSDGSFLLYSKLTVDKSRWQEGNVFSCSVMHEALHNHYTQKSLSLSLGK
light 1: QAVVTQEPSLTVSPGGTVTLTCRSSTGAVTTSNYANWVQQKPGQAPRGLIGGTNKRAPGTPARFSGSLLGGKAALTLSGAQPEDEAEYYCALWYSNLWVFGGGTKLTVLGQPKAAPSVTLFPPSSEELQANKATLVCLISDFYPGAVTVAWKADSSPVKAGVETTTPSKQSNNKYAASSYLSLTPEQWKSHRSYSCQVTHEGSTVEKTVAPTECS
heavy 2: not shown
light 2: QSALTQPRSVSGSPGHSVTISCTGTSSDVGDYNYVSWYQQRPGKVPKLLIYDVSKRPSGVPDRFSGSKSGNTASLTISGLQAEDEAIYFCSSYAGNYNVVFGGGTKLTVLGQPKAAPSVTLFPPSSEELQANKATLVCLISDFYPGAVTVAWKADSSPVKAGVETTTPSKQSNNKYAASSYLSLTPEQWKSHRSYSCQVTHEGSTVEKTVAPTECS
notes: IgG4-PAA, Fab arm exchange; also called IAPB64 x CD3B220
With B4 the “Hu/Cyno KD Ratio” value [1] was 0.2, the “EC50, T-cell mediated cytotoxicity” value [2] was 0.1 nM and the Kd [3] was 0.993 nM. The koff [3] was 0.000858 s⁻¹, the kon [3] was 864000 M⁻¹ s⁻¹ and the Kd [4] was 0.993 nM. For the same binder, the Kd [5] was 0.246 nM, the Kd [6] was 0.246 nM and the koff [6] was 0.000171 s⁻¹. It also gave a kon [6] of 695000 M⁻¹ s⁻¹, a Kd [7] of 0.993 nM and a Kd [8] of 0.246 nM.
